Data taken from paper PMC8723827 (2022).

B1: EY6A mAb (IgG) (antibody, V domains shown)
VH: EVQLVESGGGVVQPGRSLRLSCAASAFTFSSYDMHWVRQAPGKGLEWVAVISYDGSNKYYADSVKGRFTISRDNSKNTLYLQMNSLRAEDTAVYYCAKDGGKLWVYYFDYWGQGTLVTVSS
VL: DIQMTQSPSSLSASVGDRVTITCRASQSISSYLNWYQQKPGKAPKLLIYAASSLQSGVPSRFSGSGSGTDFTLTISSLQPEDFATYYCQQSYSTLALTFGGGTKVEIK
B2: Beta-55 mAb (IgG) (antibody, V domains shown)
VH: QVQLQESGPGLVKPSETLSLTCTVSGDSISSSRYYWGWIRQPPGKGLEWIGTFYYSGITYYNPSLKSRVTIFVDTSKNQFSLKLSSVTAADTAVYYCARPRPPDYYDNSGALLFDIWGQGTMVTVSS
VL: AIRMTQSPSTLSASVGDRVTIACRASQSISAWLAWYQQKPGKAPKLLIYKASSLESGVPSRFSGSGSGTEFTLTINSLQPDDFATYYCQQYISSSPWTFGQGTKVEIK

Molecular target: His-tagged SARS-CoV-2 RBD (early pandemic, Wuhan) (SARS-CoV-2, UniProt P0DTC2)
Assay: SPR

Row | Binder | koff
1 | B1 | 0.0048 s⁻¹
2 | B2 | 0.00018 s⁻¹
